B1: Twister Ribozyme (parent)
chain: AACACUGCCAAUGCCGGUCCCAAGCCCGGAUAAAAGUGGAGGGGGCGG

Variants of: B1
Assay: self-cleavage, relative activity (ratio to wild type); higher = more cleavage; co-transcriptional

Variant | self-cleavage
C5G C14A | 0.557
C5G C14G | 0.0784
A4C U31C | 0.249
C5G A11C | 0.298
A4G C8G | 0.289
A4G G47U | 0.902
A4G G47A | 0.91
C5A G28C | 0.229
A4U G17C | 0.0361
C5G C26G | 0.122
C3U G45U | 0.338
C3U G45A | 0.422
C3U G45C | 0.179
C5A G29A | 0.362
C5A G29U | 0.51
A4C C25U | 0.058
C3U U12A | 0.41
C3U U12G | 0.391
C3U U12C | 0.39
A4U G16C | 0.0898
A4U G16U | 0.0436
C5G A30C | 0.259
A4G G16A | 0.918
A4G G16U | 0.839

Variant | self-cleavage
A4G G16C | 0.243
C5A C25U | 0.236
C5A C25A | 0.068
A4U G47C | 0.111
C5A G43A | 0.1
C5A G43U | 0.108
C5A A34C | 0.119
C5A A34U | 0.182
A4U A22C | 0.0902
A4U A22G | 0.0233
C5A G45U | 0.413
A4G C14U | 0.957
A4G C14A | 0.76
A4G C14G | 0.276
C5A G48A | 0.539
C5A G48U | 0.577
C5A G44A | 0.556
C5A G44U | 0.532
C5A G44C | 0.556
A4U G41C | 0.0883
C3U G29A | 0.32
A4U G29A | 0.173
C5A C14A | 0.593
C5A C14U | 0.668

Variant | self-cleavage
C5G A35G | 0.696
C5G A35C | 0.742
A4G U12G | 0.673
A4G U12A | 1.17
C3U G38C | 0.288
C3U G38A | 0.396
A4C G39A | 0.101
C5A A22G | 0.0856
C5A A22U | 0.249
C5A A22C | 0.601
C5G G13U | 0.0419
C5A U18A | 0.118
C5A U18G | 0.0654
A4G A35G | 0.525
A4G A35C | 0.865
A4G A35U | 0.844
C3U G36C | 0.0744
C3U G36U | 0.064
A4U C19G | 0.092
A4U C19U | 0.0724
A4G A11G | 0.96
C5G C27U | 0.445
C5G C27A | 0.103
C5A C19G | 0.0385

Variant | self-cleavage
A4G C27A | 0.279
A4G C27U | 0.74
A4C C8G | 0.071
A4C U6A | 0.0472
C5A G7A | 0.0771
C3U U31A | 0.249
A4U C26A | 0.0524
A4C G7C | 0.0903
A4G G7U | 0.052
A4U G39A | 0.0691
A4G G17U | 0.0875
A4G G17A | 0.473
C5A C15U | 0.398
C3U G41U | 0.14
A4C U37C | 0.122
A4C U37A | 0.766
A4C U37G | 0.623
A4U C9G | 0.0806
A4G A23G | 0.384
A4G G48U | 0.979
A4U C25A | 0.029
A4U A40C | 0.0425
A4U A40U | 0.0743
A4C G13C | 0.0474

Variant | self-cleavage
A4C G13U | 0.072
A4C G13A | 0.0606
A4G A22C | 1.01
A4G A22U | 0.69
A4G A22G | 0.0987
A4C G16U | 0.107
A4C G16C | 0.0536
C5G A32U | 0.515
C5G A32C | 0.57
A4C C27G | 0.0637
C5A G17C | 0.0425
C5A G24C | 0.0665
A4G C15A | 0.631
A4G C19G | 0.166
A4G C19A | 0.0929
A4G C19U | 0.887
C5G A33G | 0.637
A4G U6A | 0.866
A4G U6G | 0.074
A4G A33G | 0.941
A4G A33C | 0.721
C5G A10C | 0.768
A4U C27A | 0.0441
C5A A11U | 0.351

Variant | self-cleavage
C5A A11C | 0.169
C5A G47U | 0.486
A4G G24U | 0.12
A4U C14A | 0.225
A4U C14U | 0.13
A4U C14G | 0.0594
A4U G42A | 0.0876
A4U G42C | 0.103
A4C G24U | 0.0584
A4C G24A | 0.0887
A4C G24C | 0.078
C5A C8A | 0.133
C5A C8U | 0.335
A4U G48C | 0.193
A4U G48A | 0.191
C5G G16A | 0.341
A4U A30U | 0.11
A4C A34C | 0.0803
A4G G38A | 0.867
A4U C15U | 0.124
A4U C15G | 0.0221
C3U G44C | 0.446
A4G A10G | 0.892
A4G A10C | 0.762

Variant | self-cleavage
C5A C9A | 0.123
C5A C9U | 0.0659
A4C A22C | 0.0993
A4C A22U | 0.0826
C5A C20A | 0.0707
C5A C20G | 0.0697
C5A A32U | 0.454
C5A A32C | 0.413
C3U G48A | 0.381
C3U G48C | 0.484
A4U A10U | 0.0773
A4U A10C | 0.156
A4G C21A | 0.0832
A4G C21G | 0.0683
A4U G28C | 0.0611
A4U G28U | 0.116
A4U A32U | 0.0867
A4U A32G | 0.0833
A4U A32C | 0.1
A4C G43U | 0.103
A4C G43A | 0.0357
A4C G36U | 0.0758
A4U C5A | 0.0794
C5A A30C | 0.348

Variant | self-cleavage
C5A A30G | 0.491
A4U C46A | 0.115
A4U C46U | 0.125
A4U C46G | 0.105
A4G G13A | 0.563
A4C G44U | 0.134
A4C G44C | 0.0939
C5G A40G | 0.182
C5G A40U | 0.0886
C5G A40C | 0.198
C5A G13C | 0.105
C5A G13U | 0.0864
C5A G13A | 0.132
C5A A40U | 0.107
C5A A40C | 0.129
C5A U12G | 0.42
C5A A33U | 0.492
C5A G42A | 0.132
C5A G42C | 0.184
A4G G39A | 0.322
C3U U37A | 0.533
A4C C14G | 0.0948
A4U A34C | 0.057
A4U A34U | 0.068

Variant | self-cleavage
C5G C21A | 0.0944
C5G C21U | 0.104
A4C G47A | 0.178
A4C G47C | 0.0906
A4U G24C | 0.0697
A4U G24A | 0.0658
C5A U31G | 0.524
A4U G7U | 0.0685
A4U U37C | 0.022
A4U C20A | 0.0537
A4G G43A | 0.165
A4G G43U | 0.233
A4G G43C | 0.168
A4G C46A | 0.785
A4C A10U | 0.203
A4G U37C | 0.99
C5G C15A | 0.251
C5G C15U | 0.467
C3U G39A | 0.146
C3U G39C | 0.0856
A4G G44C | 0.645
A4G G44U | 0.968
C5G C20A | 0.0467
C3U G47U | 0.513

Variant | self-cleavage
C3U G47A | 0.361
A4C A23G | 0.0448
A4G G41U | 0.405
A4U A35C | 0.129
A4U A35U | 0.196
C5A C46A | 0.652
C5A C46U | 0.681
A4U U6A | 0.0622
A4U C21A | 0.0381
A4U C21U | 0.0656
A4U C21G | 0.0541
A4G U31G | 0.759
A4G U31A | 0.604
A4G U31C | 0.886
C5G G7U | 0.0648
C5G G7A | 0.111
A4G C9U | 0.549
A4G C9G | 0.601
A4U A23G | 0.0721
A4U A23C | 0.0467
A4G G29A | 0.819
A4G G28U | 0.644
A4G G28A | 0.58
A4C G48U | 0.232

Variant | self-cleavage
C5G C9U | 0.13
A4G A40G | 0.17
A4G A40U | 0.163
A4C A11G | 0.193
A4U G36C | 0.0838
C5G A22C | 0.571
A4G C25G | 0.189
A4G C25A | 0.054
A4G G45A | 0.955
C5G C8G | 0.0701
C5G C8U | 0.294
A4C G42C | 0.125
A4C G42U | 0.0422
C5G C25G | 0.0808
C5G C25A | 0.0988
A4U U31C | 0.0955
A4C C9A | 0.114
C3U U6C | 0.0788
C3U U6A | 0.144
C3U G28C | 0.167
A4C G45A | 0.145
A4C G45U | 0.0976
A4C G45C | 0.16
A4G C20A | 0.14

Variant | self-cleavage
A4G C20U | 1.06
A4C C46A | 0.063
A4C C46G | 0.142
A4C C20U | 0.0732
C5A G38U | 0.0941
C5A G38A | 0.206
C5A G38C | 0.341
C5A A10C | 0.722
A4U C8U | 0.0539
A4U C8G | 0.13
A4C A35C | 0.301
A4C A35U | 0.272
A4C C19A | 0.0783
A4C C19G | 0.0582
A4C C19U | 0.0705
A4U G38A | 0.0789
A4C U12G | 0.332
A4C U12A | 0.193
A4U G13C | 0.0685
A4U G13U | 0.0584
A4G A30G | 0.81
A4C C26U | 0.0418
A4C C26G | 0.103
C5G C19U | 0.504

Variant | self-cleavage
C5G C19A | 0.0784
C5G C19G | 0.125
A4C A30G | 0.163
A4C A30U | 0.189
A4U G43C | 0.0736
C5A A23U | 0.074
C5A G41C | 0.0838
C5A G39A | 0.161
C5A G39U | 0.0872
C5A G39C | 0.149
A4C A32G | 0.146
A4C A32U | 0.159
A4U | 0.136
A4G | 1
A4C | 0.218
A4C G17U | 0.0801
A4C G17A | 0.0548
A4U A33G | 0.0639
A4G G42C | 0.186
A4C G28A | 0.12
C3U G43A | 0.0963
C3U G43C | 0.0646
C3U G43U | 0.0863
C5A C27G | 0.0807

Variant | self-cleavage
C5A C27A | 0.0839
C3U G42C | 0.159
A4G G36U | 0.164
A4G G36C | 0.182
C5A A35C | 0.655
C5G C46G | 0.915
A4G U18A | 0.364
A4G A34G | 0.61
A4G C5A | 0.892
A4G C5U | 0.855
A4G C5G | 0.274
A4U U12G | 0.168
A4U U12A | 0.0897
A4U U12C | 0.0758
A4C C15U | 0.271
A4C C15A | 0.12
C5A G36C | 0.519
A4G A32C | 0.719
A4G A32U | 0.945
A4C C5A | 0.0937
A4C G41U | 0.0895
A4C G41C | 0.0877

— the RNAGym collection of RNA variant scans (doi:10.7554/elife.80360)
